In patent publication US20040018971A1:

Key:
[1] = biological target: HLA-A*2401 (human); test: inhibition of 125I probe peptide binding to purified HLA; IC50 standard/IC50 test
[2] = biological target: HLA-DR3 (DRB1*0301), purified HLA class II molecule (human); test: competition with 125I-labelled probe peptide, purified HLA-DR
[3] = biological target: HLA-A*2401 (purified HLA class I molecule) (human); test: competition with 125I-labelled standard peptide for purified HLA, gel filtration; conditions: scale: ratio
[4] = biological target: HLA-A*2401 (human); test: as above
[5] = biological target: HLA-A*2401 (purified HLA class I molecule) (human); test: competition with 125I-labelled probe peptide for purified HLA, gel filtration; conditions: scale: ratio

Substance | relative binding ratio [1] | relative binding ratio (ratio (IC50 standard / IC50 test)) [2] | further results
HER2/neu 705-714 (from UniProt P04626 705-714) (peptide) | 0.0002 |  | 
HER2/neu DR supermotif exemplary 15-mer … (position 666) (peptide) |  | 0.0021 | 
HER2/neu DR supermotif exemplary 15-mer … (position 912) (peptide) |  | 0.001 | 
HER2/neu peptide, position 172, 10 amino acids |  |  | relative binding ratio [3]: 0.0022
HER2/neu peptide, position 780, 11 amino acids |  |  | relative binding ratio (IC50 of standard peptide / IC50 of test peptide) (ratio to standard peptide) [4]: 0.032
HER2/neu peptide, position 952, 10 amino acids |  |  | relative binding ratio [5]: 0.0019

The next lines start with results.

relative binding ratio [1] | relative binding ratio (ratio (IC50 standard / IC50 test)) [2] | Substance | further results
0.0022 |  | HER2/neu 172-181 (from UniProt P04626 172-181) (peptide) | 
-0.0003 |  | HER2/neu 705-715 (from UniProt P04626 705-715) (peptide) | 
0.032 |  | HER2/neu 780-790 (peptide) | 
 | 0.001 | HER2/neu DR supermotif exemplary 15-mer … (position 8) (peptide) | 
 | 0.0062 | HER2/neu DR supermotif exemplary 15-mer … (position 783) (peptide) | 
